Assay results: patent US10239925B2, “Peptides and combination of peptides for use in immunotherapy against ovarian cancer and other cancers” (IMMATICS BIOTECHNOLOGIES GMBH, priority 2015, dated 2019)

Molecular target: HLA-A*02:01 (Homo sapiens, UniProt P04439, D140Y/D185E/D98H/E176V/E277Q/G131W/G231S/I119V/I121R/I166T/I218V/L300P/L318F/N151K/N90K/P208A/P217A/Q86G/Q94H/R138H/R169H/T345S)
Assay: MHC binding assay (UV-ligand exchange, anti-β2m ELISA, peptide exchange yield)
Conditions: binding to HLA-A*02:01
Method in brief: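 Yield of stabilized complexes quantified via the β2m light chain in an ELISA (streptavidin capture, 100-fold diluted monomers, HRP anti-β2m 2 ug/ml at 37 °C, TMB, A450). The complexes come from UV-triggered replacement of a photocleavable ligand by the candidate peptide.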

| Substance | Peptide exchange (MHC class I binding score, peptide exchange yield) |
| --- | --- |
| 194 (ALPLFVITV; listed as Homo sapiens) [compound 194] | “+++” (>50 = +++) |
| 195 (GLFADLLPRL; listed as Homo sapiens) [compound 195] | “+++” (>50 = +++) |
| 196 (YLYSVEIKL; listed as Homo sapiens) [compound 196] | “++++” (>75% = ++++) |
| 197 (ALGPEGGRV; listed as Homo sapiens) [compound 197] | “++” (>20% = ++) |
| 200 (LLFGSVQEV; listed as Homo sapiens) [compound 200] | “+++” (>50 = +++) |
| 201 (RLVDYLEGI; listed as Homo sapiens) [compound 201] | “+++” (>50 = +++) |
| 202 (ALLDQQGSRWTL; listed as Homo sapiens) [compound 202] | “+++” (>50 = +++) |
| 204 (KIAENVEEV; listed as Homo sapiens) [compound 204] | “++” (>20% = ++) |
| 205 (SLYPGTETMGL; listed as Homo sapiens) [compound 205] | “+++” (>50 = +++) |
| 206 (VLQEGKLQKLAQL; listed as Homo sapiens) [compound 206] | “+++” (>50 = +++) |
| 207 (GLTSTNAEV; listed as Homo sapiens) [compound 207] | “++” (>20% = ++) |
| 208 (KISPVTFSV; listed as Homo sapiens) [compound 208] | “+++” (>50 = +++) |
| 209 (KLIESKHEV; listed as Homo sapiens) [compound 209] | “++” (>20% = ++) |
| 210 (LLLNAVLTV; listed as Homo sapiens) [compound 210] | “++” (>20% = ++) |
| 211 (LLWPGAALL; listed as Homo sapiens) [compound 211] | “++” (>20% = ++) |
| 212 (ALWDQDNLSV; listed as Homo sapiens) [compound 212] | “++” (>20% = ++) |
| 214 (FLLDLDPLLL; listed as Homo sapiens) [compound 214] | “+++” (>50 = +++) |
| 216 (NLWEDPYYL; listed as Homo sapiens) [compound 216] | “+++” (>50 = +++) |
| 217 (ALIHPVSTV; listed as Homo sapiens) [compound 217] | “++” (>20% = ++) |
| 218 (SALEELVNV; listed as Homo sapiens) [compound 218] | “++” (>20% = ++) |

| Substance | Peptide exchange (MHC class I binding score, peptide exchange yield) |
| --- | --- |
| 219 (KLSDIGITV; listed as Homo sapiens) [compound 219] | “+++” (>50 = +++) |
| 220 (LLQKFVPEI; listed as Homo sapiens) [compound 220] | “++” (>20% = ++) |
| 221 (ALYEEGLLL; listed as Homo sapiens) [compound 221] | “++” (>20% = ++) |
| 222 (NLIENVQRL; listed as Homo sapiens) [compound 222] | “++” (>20% = ++) |
| 223 (ALLENIALYL; listed as Homo sapiens) [compound 223] | “+++” (>50 = +++) |
| 224 (TLIDAQWVL; listed as Homo sapiens) [compound 224] | “+++” (>50 = +++) |
| 225 (SLLKVLPAL; listed as Homo sapiens) [compound 225] | “+++” (>50 = +++) |
| 226 (MLYVVPIYL; listed as Homo sapiens) [compound 226] | “++” (>20% = ++) |
| 227 (ALMNTLLYL; listed as Homo sapiens) [compound 227] | “++” (>20% = ++) |
| 228 (AMQEYIAVV; listed as Homo sapiens) [compound 228] | “++” (>20% = ++) |
| 229 (RLPGPLGTV; listed as Homo sapiens) [compound 229] | “++” (>20% = ++) |
| 230 (ILVDWLVEV; listed as Homo sapiens) [compound 230] | “+” (>10% = +) |
| 231 (FLSPQQPPLLL; listed as Homo sapiens) [compound 231] | “++” (>20% = ++) |
| 232 (ALLEAQDVELYL; listed as Homo sapiens) [compound 232] | “++” (>20% = ++) |
| 233 (VLSETLYEL; listed as Homo sapiens) [compound 233] | “++” (>20% = ++) |
| 234 (ALMEDTGRQML; listed as Homo sapiens) [compound 234] | “++” (>20% = ++) |
| 235 (YLNDLHEVLL; listed as Homo sapiens) [compound 235] | “++++” (>75% = ++++) |
| 236 (GLLEAKVSL; listed as Homo sapiens) [compound 236] | “+++” (>50 = +++) |
| 237 (ALLEASGTLLL; listed as Homo sapiens) [compound 237] | “++++” (>75% = ++++) |

The remaining lines, values ahead:

| Peptide exchange (MHC class I binding score, peptide exchange yield) | Substance |
| --- | --- |
| “+++” (>50 = +++) | 238 (YLISFQTHI; listed as Homo sapiens) [compound 238] |
| “+++” (>50 = +++) | 239 (AAFAGKLLSV; listed as Homo sapiens) [compound 239] |
| “+++” (>50 = +++) | 240 (ILLEQAFYL; listed as Homo sapiens) [compound 240] |
| “+++” (>50 = +++) | 241 (SLVEVNPAYSV; listed as Homo sapiens) [compound 241] |
| “+++” (>50 = +++) | 243 (LLLNELPSV; listed as Homo sapiens) [compound 243] |
| “+++” (>50 = +++) | 244 (SLFGGTEITI; listed as Homo sapiens) [compound 244] |
| “+++” (>50 = +++) | 245 (SMIDDLLGV; listed as Homo sapiens) [compound 245] |
| “+++” (>50 = +++) | 246 (LLWEVVSQL; listed as Homo sapiens) [compound 246] |
| “+++” (>50 = +++) | 248 (FLFPNQYVDV; listed as Homo sapiens) [compound 248] |
| “+++” (>50 = +++) | 249 (LLDGFLVNV; listed as Homo sapiens) [compound 249] |
| “+++” (>50 = +++) | 250 (ALSEEGLLVYL; listed as Homo sapiens) [compound 250] |
| “++” (>20% = ++) | 251 (ALYTGFSILV; listed as Homo sapiens) [compound 251] |
| “+++” (>50 = +++) | 252 (LLIGTDVSL; listed as Homo sapiens) [compound 252] |
| “++” (>20% = ++) | 253 (GLDAATATV; listed as Homo sapiens) [compound 253] |
| “+++” (>50 = +++) | 254 (TLLAFIMEL; listed as Homo sapiens) [compound 254] |
| “+++” (>50 = +++) | 255 (VLASYNLTV; listed as Homo sapiens) [compound 255] |
| “+++” (>50 = +++) | 256 (FLPPEHTIVYI; listed as Homo sapiens) [compound 256] |
| “+++” (>50 = +++) | 257 (SIFSAFLSV; listed as Homo sapiens) [compound 257] |
| “++” (>20% = ++) | 258 (ELAERVPAI; listed as Homo sapiens) [compound 258] |
| “++” (>20% = ++) | 261 (YVLEFLEEI; listed as Homo sapiens) [compound 261] |
| “+++” (>50 = +++) | 262 (LLWGDLIWL; listed as Homo sapiens) [compound 262] |
| “+++” (>50 = +++) | 263 (LLVSNLDFGV; listed as Homo sapiens) [compound 263] |
